From patent US20110105393A1, “METHODS FOR PROMOTING STEM CELL PROLIFERATION AND SURVIVAL” (priority 2007, published 2011)

B1: CNTF: CNTF (577-NT) from R&D; induces differentiation of NSCs (protein, UniProt P26441 1-200, looked up)
Ciliary neurotrophic factor: MAFTEHSPLTPHRRDLCSRSIWLARKIRSDLTALTESYVKHQGLNKNINLDSADGMPVASTDQWSELTEAERLQENLQAYRTFHVLLARLLEDQQVHFTPTEGDFHQAIHTLLLQVAAFAYQIEELMILLEYKIPRNEADGMPINVGDGGLFEKKLWGLKVLQELSQWTVRSIHDLRFISSHQTGIPARGSHYIANNKKM
B2: Ang-1: human angiopoietin-1 (923-AN) from R&D (protein, UniProt Q15389 16-498, looked up)
Angiopoietin-1: HIGCSNQRRSPENSGRRYNRIQHGQCAYTFILPEHDGNCRESTTDQYNTNALQRDAPHVEPDFSSQKLQHLEHVMENYTQWLQKLENYIVENMKSEMAQIQQNAVQNHTATMLEIGTSLLSQTAEQTRKLTDVETQVLNQTSRLEIQLLENSLSTYKLEKQLLQQTNEILKIHEKNSLLEHKILEMEGKHKEELDTLKEEKENLQGLVTRQTYIIQELEKQLNRATTNNSVLQKQQLELMDTVHNLVNLCTKEGVLLKGGKREEEKPFRDCADVYQAGFNKSGIYTIYINNMPEPKKVFCNMDVNGGGWTVIQHREDGSLDFQRGWKEYKMGFGNPSGEYWLGNEFIFAITSQRQYMLRIELMDWEGNRAYSQYDRFHIGNEKQNYRLYLKGHTGTAGKQSSLILHGADFSTKDADNDNCMCKCALMLTGGWWFDACGPSNLNGMFYTAGQNHGKLNGIKWHYFKGPSYSLRSTTMMIRPLDF

Experiments:
Notch receptor = Notch receptor cleavage (activation) in NSC cultures; assay type: cell-based, mouse; conditions: effect of inhibitor; DAPT 1 μM
Description: (§1) Cell culture: E13.5 cortical embryonic mouse CNS stem cells were grown as previously described (Johe, et al., Genes Dev 10, 3129-40, 1996). Cells were expanded in serum-free DMEM/F12 medium with N2 supplement and FGF2 (20 ng/ml) for 5 days under 5% oxygen conditions and were re-plated fresh or from frozen stocks at 1,000-10,000 cells per cm^2. FGF2 was included throughout the studies, unless otherwise stated. Adult rat (3-6 months old) or adult mouse (2-4 months old) SVZ NSC cultures were grown in the same medium as the fetal cultures.
(§2) Pharmacological treatments: Unless otherwise stated, the following concentrations were used: Dll4 and Ang-2 (in vitro, 500 ng/ml; in vivo 12.5 μg as a single injection), FGF2 (in vitro, 20 ng/ml), JAK inhibitor (in vitro, 200 nM; in vivo, 250 ng as a single injection), insulin (in vitro, 25 μg/ml; in vivo, 40 μg as a single injection), DAPT (1 μM), Fluorogold (0.5 μg). For the survival assays, compounds were added daily and Notch ligands every 2 days for the duration of the experiment. For the effects of kinase inhibitors on Notch activation, cells were pre-incubated for 1 h prior to Notch activation.
It was previously shown that in NSCs Notch activation leads to rapid phosphorylation of Akt (Androutsellis-Theotokis, A. et al., Nature 442, 823-6, 2006), a mediator of insulin signalling (Cantley, Science 296, 1655-7, 2002). […] Activation of the Notch receptor by addition of insulin or Dll4 was inhibited by DAPT, a γ-secretase inhibitor that blocks Notch cleavage. […] Insulin maintained STAT3-Ser727 phosphorylation levels, and acutely (1-h) induced it following a 16-h insulin withdrawal phase (FIG. 1c).

insulin/IGF-1 receptors = assay: Insulin/IGF-1 receptor activation in NSC cultures; assay type: cell-based, mouse; conditions: effect of inhibitor; DAPT 1 μM
Description: as §1, §2
It was previously shown that in NSCs Notch activation leads to rapid phosphorylation of Akt (Androutsellis-Theotokis, A. et al., Nature 442, 823-6, 2006), a mediator of insulin signalling (Cantley, Science 296, 1655-7, 2002). […]

NSC cultures = assay: Incidence of Tie-2 spikes in NSC cultures; assay type: cell-based; conditions: for % of cells with at least one spike: NSC cultures; for spike number: thirty minutes after treatment
Description: A protrusion of the cell membrane was identified in neuronal stem cells (NSCs) when the Tie-2 receptor is concentrated. This can be visualized using antibodies that bind Tie-2. The protrusion was termed a spike. These spikes appear 30 minutes after treatment with pharmaceutical agents. […] increase spike number thirty minutes after treatment. […] Thus, a novel sub-cellular structure ahs been identified. These structures could regulate the responsiveness of cells to treatments.
Thus, a novel protrusion of the cell membrane in NSCs has been identified where the Tie-2 receptor is concentrated. This can be easily visualized using an antibody against Tie-2 that recognizes a particular epitope. […] Indeed, the spike is devoid of actin filaments or tubulin. The spikes can be detected within thirty minutes of contacting the cultures with an the factors. Thus, the spikes provide a rapid assay for the effect of pharmacologic agents.

Ang-1 = Ang-1 expression in fetal NSC cultures; assay type: cell-based, mouse; conditions: fetal NSCs in culture, treatment 2 days
Description: as §1
(§3) Fetal NSCs in culture express Ang-1, and treatment (2 days) with Dll4 maintained it whereas CNTF reduced it. Ang-2 expression was maintained under these conditions. […] Ang-2 induced mTOR and STAT3-S727 phosphorylation, unlike Ang-1 (FIG. 2a). Ang-1, however, induced Akt phosphorylation.

Hes3 = Hes3 protein immuno-staining in fetal NSC cultures; assay type: cell-based, mouse; conditions: 2 day treatment
Description: as §1
Hes3 mRNA is present in fetal NSC cultures under conditions that support their self-renewal but CNTF-induced differentiation (Bonni, A. et al., Science 278, 477-83, 1997; Rajan & McKay, J Neurosci 18, 3620-9, 1998): downregulates Hes3 message (Androutsellis-Theotokis, A. et al., Nature 442, 823-6, 2006). Knockout studies have shown a role of Hes3 in self-renewal (Hatakeyama, J. et al., Development 131, 5539-50, 2004). It was investigated if Hes3 mediates stem cell functions in vitro to assess its use as a functional NSC marker. Fetal (E13.5) cortical tissue was dissociated and magnetic sorting was used to isolate a cell population that expressed AC133, an established marker of NSCs (Uchida, N. et al., Proc Natl Acad Sci USA 97, 14720-5, 2000). […]

Akt = Akt phosphorylation in NSC cultures; assay type: cell-based, mouse; conditions: 0.5 μg/ml (FIG. 2a)
Description: as §1, §3

mTOR = mTOR phosphorylation in NSC cultures (Western blot); assay type: cell-based, mouse; conditions: NSC cultures, 0.5 μg/ml (FIG. 2a, Example 3)
Description: as §1, §3
Three characterized Tie-2 receptor antibodies were used to determine if the Tie-2 receptor was expressed in the immature neural precursor cells found in the SVZ of the adult brain. When ligand is bound, the Tie-2 receptor becomes phosphorylated. An antibody that recognizes the activated receptor (RnD Systems, AF2720) and another antibody that binds to a distinct site (Santa Cruz, sc-324) identified many positive cells in the subventricular zone of the adult rat brain. In regions that were more distant from the ventricle, Tie-2 was expressed predominantly on blood vessels and endothelial cells reacted with antibodies against the activated receptor. Precursor cells that proliferate in vitro can be readily derived from the fetal and adult brain. The homogeneity of these cell populations in attached culture and their potential to generate neurons and glia is supported by clonal analysis. […] This colony number assay measured the survival of precursor cells that could differentiate into neurons and glia (See, Table 1).

Molecule	Activation of the Notch receptor by addition of insulin or Dll4 (Notch receptor)	Activation of the insulin/IGF-1 receptors by insulin treatment (insulin/IGF-1 receptors)	% of cells with at least one spike (NSC cultures) [%]	spike number (NSC cultures)	Ang-1 expression (Ang-1)	Hes3 protein expression (Hes3)	Akt phosphorylation (Akt)	mTOR phosphorylation (mTOR)
C[C@H](NC(=O)Cc1cc(F)cc(F)c1)C(=O)N[C@H](C(=O)OC(C)(C)C)c1ccccc1 [DAPT, reference compound]	inhibited	partly blocked						
B1			0.8	do not increase	reduced	lost		
B2			0.8	do not increase			induced	inhibits
